Reference: patent US20060102935A1, “Transistor-based biosensors having gate electrodes coated with receptor molecules” (priority 2002, published 2006)

How the values were obtained:
[1] = biological target: T1, acetylcholine esterase (AChE) (Electrophorus electricus, UniProt O42275); assay: AChE-ISFET (AChE-FET) response to substrate and inhibitor in PBS; type: biochemical, electric eel; conditions: dissolved in PBS, in comparison to ACh
T1 construct: purchased Sigma C1682
Procedure: In this experiment, the ISFET has undergone covalent bonding with acetylcholine-esterase using the aforementioned cyanuryl chloride techniques. As shown in the figure, the response of the ACHE-ISFET to various doses of acetylcholine (graph I). Acetylcholine was manually applied into a solution of 5 ml Phosphate Saline Buffer (PBS) in which the ISFET resided.
Both carbamylcholine and acetylcholine have been dissolved in phosphate buffered saline (PBS).
Acetylcholine esterase (C1682, taken from electric eel), acetylcholine-iodine, acetylcholine-chloride, cyanuric chloride and eserine (physostigmine), ere purchased from Sigma and were used as supplied.
ISFETs were first rinsed with isopropanol and dried under Argon. A is solution of 0.1M cyanuric chloride (in dichloromethane) was prepared and then applied to the Al2O3 gate surface of the ISFET. ISFETs were then dried with Argon and heated at 70° C. for 15 minutes, then rinsed again with dichloromethane and dried under Argon. […]
The resulting hybrid system of Example 3, was immersed in a PBS solution as a background electrolyte for the measurements. […] The current between source and drain electrodes (Ids) was measured, while potential between drain and source electrodes (Vds), and between the gate and source electrodes (Vgs) were kept constant at 0.1V and 0.45V, respectively, recording the electrical activity occurring at the gate surface.

CC(=O)OCC[N+](C)(C)C = assay: purified protein, by the assay type; conditions: other: surface-bound AChE, Lineweaver-Burk plot, DTNB 5×10^−5 M
Procedure: In this test, the enzyme activity is measured by following the increase of yellow color produced from the reaction of thiocholine with the DTNB ion (Sawada, O., Ishida, T., Kihachiro, H., J. Biochem., 129, 2001, 899-907).
The reaction of acetylthiocholine-iodide with DTNB (5,5′-dithio-bis (2-nitrobenzoic acid) marker was conducted by immersing the solid substrate containing the immobilized ACHE, obtained above, in an optical cell compatible with the spectrophotometer. The rate of color production was measure at 410 nm. All of the investigated solutions were freshly prepared: ACh in phosphate buffer of pH=8.0 and the DTNB dissolved in PBS buffer of pH=6.5.
The enzyme activity was probed by two methods: Ex-situ and In-situ experiments. In the Ex-situ experiments the solution of the marker containing ACh is measured before and after the exposure to the immobilized ACHE substrate. The optical cell contains a solution composed of 2 ml of 2.5.10^−3 M ACh and 2 ml of 1.10^−4 M DTNB. The optical spectra were recorded before and after 15 min of the immobilized enzyme solution insertion to this optical cell. In the In-situ experiments, the substrate is immersed in the optical cell containing various concentrations of the DTNB/ACh solution. The hydrolysis product was followed in two ways: (a) by recording the spectra in fixed time interval and (b) by the time course mode at 410 nm. […]

T1 sequence (O42275 24-633): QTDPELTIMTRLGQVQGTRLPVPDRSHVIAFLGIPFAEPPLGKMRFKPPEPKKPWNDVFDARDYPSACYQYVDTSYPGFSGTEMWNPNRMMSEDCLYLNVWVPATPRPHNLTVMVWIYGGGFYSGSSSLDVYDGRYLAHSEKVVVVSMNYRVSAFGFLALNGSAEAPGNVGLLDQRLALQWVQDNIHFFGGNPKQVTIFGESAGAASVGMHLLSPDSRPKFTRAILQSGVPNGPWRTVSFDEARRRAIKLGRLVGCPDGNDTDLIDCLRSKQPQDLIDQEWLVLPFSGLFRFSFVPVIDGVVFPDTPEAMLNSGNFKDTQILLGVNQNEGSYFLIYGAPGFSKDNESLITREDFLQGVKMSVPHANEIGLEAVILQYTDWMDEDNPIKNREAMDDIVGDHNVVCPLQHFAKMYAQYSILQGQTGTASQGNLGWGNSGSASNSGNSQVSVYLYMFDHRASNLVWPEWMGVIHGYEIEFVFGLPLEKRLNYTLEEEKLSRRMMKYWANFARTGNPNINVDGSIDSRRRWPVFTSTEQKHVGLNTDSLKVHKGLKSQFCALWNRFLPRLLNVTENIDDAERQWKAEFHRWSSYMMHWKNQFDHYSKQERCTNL

Molecule | response of AChE-ISFET on application to the solution [1] | Km (CC(=O)OCC[N+](C)(C)C) | Vmax (CC(=O)OCC[N+](C)(C)C)
C[N+](C)(C)CCOC(N)=O.[Cl-] [Carbamylcholine] | no response |  | 
surface-bound AChE (Electrophorus electricus) |  | 310 µM | 1e-07 M/s
